# Laboratory results from patent publication US20230303660A1 (published 2023).
# Where “and” joins values, the source holds several entries; their conditions need not be identical. Equal values may be shown once.
# B1: Triple-s4-1BBL (ligand)
# chain: GSGSNWSHPQFEKGGSGGHHHHHHGGSGGGSLDLRQGMFAQLVAQNVLLIDGPLSWYSDPGLAGVSLTGGLSYKEDTKELVVAKAGVYYVFFQLELRRVVAGEGSGSVSLALHLQPLRSAAGAAALALTVDLPPASSEARNSAFGFQGRLLHLSAGQRLGVHLHTEARARHAWQLTQGATVLGLFRVTPEIPAGLPSPRSEGGGGSGGGGSGGGGSLDLRQGMFAQLVAQNVLLIDGPLSWYSDPGLAGVSLTGGLSYKEDTKELVVAKAGVYYVFFQLELRRVVAGEGSGSVSLALHLQPLRSAAGAAALALTVDLPPASSEARNSAFGFQGRLLHLSAGQRLGVHLHTEARARHAWQLTQGATVLGLFRVTPEIPAGLPSPRSEGGGGSGGGGSGGGGSLDLRQGMFAQLVAQNVLLIDGPLSWYSDPGLAGVSLTGGLSYKEDTKELVVAKAGVYYVFFQLELRRVVAGEGSGSVSLALHLQPLRSAAGAAALALTVDLPPASSEARNSAFGFQGRLLHLSAGQRLGVHLHTEARARHAWQLTQGATVLGLFRVTPEIPAGLPSPRSE
# notes: HEK293T supernatant; Single chain carrying three ectodomains; The entry may include the leader
# B2: s4-1BBLsh-TriXVIII (ligand)
# chain: GSGSNWSHPQFEKGGSGGHHHHHHGGSGGGVRLWATRQAMLGQVHEVPEGWLIFVAEQEELYVRVQNGFRKVQLEARTPLPRGTDNEGSGMFAQLVAQNVLLIDGPLSWYSDPGLAGVSLTGGLSYKEDTKELVVAKAGVYYVFFQLELRRVVAGEGSGSVSLALHLQPLRSAAGAAALALTVDLPPASSEARNSAFGFQGRLLHLSAGQRLGVHLHTEARARHAWQLTQGATVLGLFRVTP
# notes: HEK293T supernatant, used without purification; The entry may include the CD5 leader; also called 54-1BBLsh-TriXVIII; s4-1BBL-short (sh) minimal polypeptide
# B3: s4-1BBL (ligand)
# chain: GSGSNWSHPQFEKGGSGGHHHHHHGGSGGGSLDLRQGMFAQLVAQNVLLIDGPLSWYSDPGLAGVSLTGGLSYKEDTKELVVAKAGVYYVFFQLELRRVVAGEGSGSVSLALHLQPLRSAAGAAALALTVDLPPASSEARNSAFGFQGRLLHLSAGQRLGVHLHTEARARHAWQLTQGATVLGLFRVTPEIPAGLPSPRSE
# notes: HEK293T supernatant; also called soluble 4-1BBL
# B4: s4-1BBL-TriXVIII (ligand)
# chain: GSGSNWSHPQFEKGGSGGHHHHHHGGSGGGVRLWATRQAMLGQVHEVPEGWLIFVAEQEELYVRVQNGFRKVQLEARTPLPRGTDNEGSLDLRQGMFAQLVAQNVLLIDGPLSWYSDPGLAGVSLTGGLSYKEDTKELVVAKAGVYYVFFQLELRRVVAGEGSGSVSLALHLQPLRSAAGAAALALTVDLPPASSEARNSAFGFQGRLLHLSAGQRLGVHLHTEARARHAWQLTQGATVLGLFRVTPEIPAGLPSPRSE
# notes: HEK293T supernatant; The entry may include the CD5 leader; also called 54-1BBL-TriXVIII; human s4-1BBL-TriXVIII
# B5: s4-1BBL-TNC (ligand)
# chain: GSGSNWSHPQFEKGGSGGHHHHHHGGSGGTRACGCAAAPDIKDLLSRLEELEGLVSSLREQGSLDLRQGMFAQLVAQNVLLIDGPLSWYSDPGLAGVSLTGGLSYKEDTKELVVAKAGVYYVFFQLELRRVVAGEGSGSVSLALHLQPLRSAAGAAALALTVDLPPASSEARNSAFGFQGRLLHLSAGQRLGVHLHTEARARHAWQLTQGATVLGLFRVTPEIPAGLPSPRSE
# notes: HEK293T supernatant; The entry may include the CD5 leader; also called comparison 3
# B6: murine (m)s4-1BBL-TriXVIII (ligand)
# chain: GVRLWATRQAMLGQVHEVPEGWLIFVAEQEELYVRVQNGFRKVQLEARTPLPRGTDNEGSRTEPRPALTITTSPNLGTRENNADQVTPVSHIGCPNTTQQGSPVFAKLLAKNQASLCNTTLNWHSQDGAGSSYLSQGLRYEEDKKELVVDSPGLYYVFLELKLSPTFTNTGHKVQGWVSLVLQAKPQVDDFDNLALTVELFPCSMENKLVDRSWSQLLLLKAGHRLSVGLRAYLHGAQDAYRDWELSYPNTTSFGLFLVKPDNPWE
# B7: s4-1BBL-TriXVIII^LL (ligand)
# chain: GSGSNWSHPQFEKGGSGGHHHHHHGGSGGTRSGAGGSGGSSGSDGASGSGVRLWATRQAMLGQVHEVPEGWLIFVAEQEELYVRVQNGFRKVQLEARTPLPRGTDNEGSLDLRQGMFAQLVAQNVLLIDGPLSWYSDPGLAGVSLTGGLSYKEDTKELVVAKAGVYYVFFQLELRRVVAGEGSGSVSLALHLQPLRSAAGAAALALTVDLPPASSEARNSAFGFQGRLLHLSAGQRLGVHLHTEARARHAWQLTQGATVLGLFRVTPEIPAGLPSPRSE
# Molecular target: T1, human 4-1BB (human, UniProt Q07011 24-255)
# T1 construct: whole, on cells; also called CD137; 4-1BB reporter cells
# Experiment: flow cytometry; dilution series of HEK293T supernatant on Jurkat TPR cells expressing human 4-1BB
# Description: For testing the resulting supernatants, a Triple parameter reporter cell line (TPR) based on the human Jurkat JE6-1 T cell line was used (Jutz et al., 2016). This cell line harbors fluorescent reporter polypeptides to concomitantly assess the activity of three transcription factors, which play major roles during T cell activation: NF-κB::eCFP; NFAT::eGFP and AP-1::mCherry. The TPR reporter cells were transduced to stably express human 4-1BB. For the binding assays, 1×10⁵ 4-1 BB expressing cells in a volume of 10 μl were incubated with 50 μl of the supernatants containing the products according to Table 1. […] After an incubation time of 30 min at 4° C., the samples are washed in FACS-Buffer (1×PBS, 0.5% FCS, 0.005% NaN₃) and stained with a biotinylated Strep-tag II mAb (GenScript, NJ) via adding 5 μl of a 1:150 dilution to each sample and incubation for 20 min on 4° C. Afterwards, samples were washed again and incubated for another 20 min on 4° C. upon adding 5 μl of a 1:200 dilution of Streptavidin-PE (BD Pharmingen, San Diego, CA) to each sample. At last, samples were washed again and subsequently measured via flow cytometry, which was performed on a FACSCalibur flow cytometer (Becton Dickinson Immunocytometry System, San Jose, CA), using the CellQuest software. Data was analyzed with FlowJo (version 10.0.7, Tree Star, Ashland, OR) and Graphpad Prism (version 6, GraphPad Software, Inc., La Jolla, CA).
# T1 sequence (Q07011 24-255): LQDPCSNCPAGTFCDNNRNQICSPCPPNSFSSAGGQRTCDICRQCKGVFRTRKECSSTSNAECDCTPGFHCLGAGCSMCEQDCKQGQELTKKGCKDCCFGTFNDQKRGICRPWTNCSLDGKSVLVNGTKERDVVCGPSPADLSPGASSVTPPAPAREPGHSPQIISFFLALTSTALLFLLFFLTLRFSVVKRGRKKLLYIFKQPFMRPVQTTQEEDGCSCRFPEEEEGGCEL
row,Binder,supernatant dilution at which binding is still detectable
1,B1,4096 supernatant dilution (1:x)
2,B2,2080 supernatant dilution (1:x)
3,B3,1600 supernatant dilution (1:x)
4,B4,4096 supernatant dilution (1:x)
5,B5,128 supernatant dilution (1:x)

# Molecular target: murine 4-1BB (murine, UniProt P20334 24-256)
# Experiment: cell-based or functional assay
# Sequence of murine 4-1BB (P20334 24-256): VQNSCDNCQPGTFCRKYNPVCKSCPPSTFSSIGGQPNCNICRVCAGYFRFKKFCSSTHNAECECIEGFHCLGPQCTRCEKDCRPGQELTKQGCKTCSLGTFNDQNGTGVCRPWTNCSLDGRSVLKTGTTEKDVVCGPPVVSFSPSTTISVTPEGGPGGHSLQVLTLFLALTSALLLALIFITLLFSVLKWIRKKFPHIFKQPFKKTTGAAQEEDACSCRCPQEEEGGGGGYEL
row,Binder,NF-κB activation measured through eCFP expression (fold induction)
1,B6,15600 final supernatant dilution (1:x) and 500 supernatant dilution (1/x)

# Molecular target: T1, human 4-1BB
# Experiment: cell-based or functional assay
row,Binder,NF-κB activation measured through eCFP expression (fold induction)
1,B3,8 final supernatant dilution (1:x)
2,B7,64 final supernatant dilution (1:x) and 8 supernatant dilution (1:x)
3,B5,~50 % of effect lost at a dilution of 1:8
